Paper PMC8162731

Test system: CC(C)(O)[C@@H](O)C(=O)O
Assay: purified protein
Format: biochemical, Synechocystis sp. PCC 6803
Settings: aerobic

Row | Substance | Km (as-purified enzyme) | Km (as-purified enzyme 0.05 μM, pH 8.0, 50 °C)
1 | SnDHAD (Synechocystis sp. PCC 6803 substr. Kazusa; Y477H) | 108.9 ± 10.7 µM | 
2 | SnDHAD (Synechocystis sp. PCC 6803 substr. Kazusa) |  | 136.3 ± 9.0 µM
